Results: US20250333512A1

What was measured:
Experiment in all cases: cell-based or functional assay
Design in all cases: AUC (IL-2 ELISA): unit not given beside the values
[1] = target: chimeric receptor containing a rhesus macaque FcγRI ectodomain and the CD3ζ intracellular signaling domain (rhesus macaque)
[2] = target: chimeric receptor containing a rhesus macaque FcγRIIB ectodomain and the CD3ζ intracellular signaling domain (rhesus macaque)
[3] = target: chimeric receptor containing a rhesus macaque FcγRIII ectodomain and the CD3ζ intracellular signaling domain (rhesus macaque) (UniProt A3RFZ7)
Chain of chimeric receptor containing a rhesus macaque FcγRIII ectodomain and the CD3ζ intracellular signaling domain (rhesus macaque) (A3RFZ7 whole entry, change not shown, the tested form may be a part): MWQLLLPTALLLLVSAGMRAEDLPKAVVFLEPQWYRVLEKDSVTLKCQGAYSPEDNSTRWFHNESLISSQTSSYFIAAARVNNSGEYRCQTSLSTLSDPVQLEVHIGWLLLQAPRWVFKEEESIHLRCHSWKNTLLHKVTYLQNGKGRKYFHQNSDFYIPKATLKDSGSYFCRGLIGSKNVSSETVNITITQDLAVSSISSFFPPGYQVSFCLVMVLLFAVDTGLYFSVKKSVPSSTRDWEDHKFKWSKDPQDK

[4] = target: chimeric receptor containing a rhesus macaque FcγRIIA ectodomain and the CD3ζ intracellular signaling domain (rhesus macaque)

Chain of PGT121 (Mammalian) (antibody) (heavy): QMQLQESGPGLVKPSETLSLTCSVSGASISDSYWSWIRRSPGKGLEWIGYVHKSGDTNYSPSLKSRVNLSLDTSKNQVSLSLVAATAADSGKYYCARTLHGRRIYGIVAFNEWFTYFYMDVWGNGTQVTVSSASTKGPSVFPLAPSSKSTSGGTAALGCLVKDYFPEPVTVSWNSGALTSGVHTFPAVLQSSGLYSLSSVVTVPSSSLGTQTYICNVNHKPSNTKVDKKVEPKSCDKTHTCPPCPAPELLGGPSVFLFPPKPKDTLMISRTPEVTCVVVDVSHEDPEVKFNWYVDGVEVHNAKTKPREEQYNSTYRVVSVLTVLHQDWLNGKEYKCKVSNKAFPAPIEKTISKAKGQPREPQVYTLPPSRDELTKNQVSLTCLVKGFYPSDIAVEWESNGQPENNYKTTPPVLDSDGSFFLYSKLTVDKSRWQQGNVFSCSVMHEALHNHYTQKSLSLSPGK
Chain of PGT121 (Mammalian) (antibody) (light): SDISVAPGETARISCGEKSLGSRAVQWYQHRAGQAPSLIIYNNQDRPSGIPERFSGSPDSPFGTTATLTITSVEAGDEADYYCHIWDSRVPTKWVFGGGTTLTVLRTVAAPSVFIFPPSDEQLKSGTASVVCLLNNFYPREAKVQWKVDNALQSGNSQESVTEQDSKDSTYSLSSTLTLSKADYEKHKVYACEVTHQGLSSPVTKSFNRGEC

| Substance | AUC (IL-2 ELISA) [1] | EC50 (IL-2 ELISA) [1] [µg/mL] | AUC (IL-2 ELISA) [2] | EC50 (IL-2 ELISA) [2] [µg/mL] | AUC (IL-2 ELISA) [3] | EC50 (IL-2 ELISA) [3] [µg/mL] | AUC (IL-2 ELISA) [4] | EC50 (IL-2 ELISA) [4] [µg/mL] |
| --- | --- | --- | --- | --- | --- | --- | --- | --- |
| Nb PGT121-YTE (antibody) | 3.99 | 0.735 | 0.256 | > 50 | 0.226 | > 50 | 0.246 | > 50 |
| VRC07-523-LS(Mammalian) (antibody) | 4.37 | 0.303 | 1.36 | 1.95 | 1.82 | 0.637 | 4.5 | 0.853 |
| VRC07-523 (Mammalian) (antibody) | 4.14 | 0.326 | 1.26 | 2.1 | 1.46 | 1.21 | 4.15 | 0.722 |
| PGT121 (Mammalian) (antibody) | 3.55 | 0.619 | 0.636 | 3.58 |  |  | 3.74 | 1.72 |
| Nb PGT121-KDEL (antibody) | 4.46 | 0.548 | 0.4 | > 50 | 0.934 | 3.57 | 0.401 | > 50 |
| Nb VRC01-KDEL (antibody) | 4.69 | 0.419 | 0.355 | > 50 | 0.37 | > 50 | 0.334 | > 50 |
